{
  "source": "patent US20140161821A1",
  "about": "“TREATMENT WITH ANTI-PCSK9 ANTIBODIES” (PFIZER INC., priority 2011, published 2014)",
  "key": {"[1]": {"experiment": "Example 2 clinical study: safety and adverse events", "assay_type": "in vivo", "conditions": "single IV 0.3-18 mg/kg", "experimental": "The study entailed a randomized, placebo-controlled, ascending, single dose study of L1L3. The subjects, investigator, and site personnel (except site personnel responsible for drug preparation) were blinded to treatment assignments, as was the CRO designee; while the Sponsor clinical research team was unblinded. The study was conducted in 6 planned cohorts of 8 subjects per cohort in an effort to seek a maximum tolerated dose or MTD (total of approximately 48 subjects). […] Doses were administered following an overnight fast as an intravenous infusion over 60 minutes. […] Infusions will be administered as a single infusion over 60 minutes.\nThe dosing schedule was adjusted to allow administration of lower, intermediate, or higher doses to obtain a maximum tolerated dose and no effect dose. Each subject enrolled into the study, regardless of cohort assignment, received only one dose of study drug during their study participation."}, "[2]": {"experiment": "Example 3 clinical study: safety and adverse events", "assay_type": "in vivo, human", "description": "In the study, the incidence of subjects meeting toxicity or intolerable dose criteria was measured. Incidence of treatment emergent adverse events (TEAEs) categorized by severity and causal relationship to study drug was also be measured. The timeframe for measurement of each of the above outcomes was two months."}, "PCSK9 [3]": {"target": "T1, PCSK9 (Homo sapiens, UniProt Q8NBP7)", "T1 construct": "PCSK9 antagonist antibody that antagonizes circulating PCSK9; endogenous in cells; host or cells: human subjects in clinical trials (in vivo, circulating PCSK9)", "T1 sequence (Q8NBP7 153-692)": "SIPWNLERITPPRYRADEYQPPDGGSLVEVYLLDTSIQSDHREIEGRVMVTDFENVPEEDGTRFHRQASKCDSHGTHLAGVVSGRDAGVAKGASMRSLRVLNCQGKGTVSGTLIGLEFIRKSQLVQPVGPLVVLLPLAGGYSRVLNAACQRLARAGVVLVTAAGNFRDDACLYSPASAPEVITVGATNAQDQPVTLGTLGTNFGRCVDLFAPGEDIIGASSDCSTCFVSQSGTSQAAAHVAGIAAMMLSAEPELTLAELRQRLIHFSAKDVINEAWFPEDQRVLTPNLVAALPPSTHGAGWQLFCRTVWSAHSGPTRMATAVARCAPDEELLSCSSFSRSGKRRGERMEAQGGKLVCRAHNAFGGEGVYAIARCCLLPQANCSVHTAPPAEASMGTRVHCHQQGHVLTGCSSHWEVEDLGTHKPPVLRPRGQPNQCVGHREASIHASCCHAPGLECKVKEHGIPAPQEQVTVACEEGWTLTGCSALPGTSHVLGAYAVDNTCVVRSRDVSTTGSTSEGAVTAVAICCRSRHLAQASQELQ", "T1 sequence (Q8NBP7 31-152 partner limits assumed)": "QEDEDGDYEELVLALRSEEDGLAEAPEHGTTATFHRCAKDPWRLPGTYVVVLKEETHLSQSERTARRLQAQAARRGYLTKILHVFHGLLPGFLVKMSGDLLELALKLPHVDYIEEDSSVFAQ", "experiment": "Example 5 clinical study, four weekly IV doses: fasting LDL-C", "assay_type": "in vivo, human Japanese subjects", "conditions": "weekly IV 0.25, 0.5, 1.0, 1.5 mg/kg on Days 1, 8, 15, 22; baseline about 155 mg/dL", "text": "This study was a randomized, multi-center, double-blind, placebo control, parallel designed trial with a 28 day screening period, 4 week treatment period and 8 week follow-up period (FIG. 11). […] For each subject, the study consisted of 3 periods: screening, treatment, and follow-up. […] The follow-up period will lasted approximately 8 weeks, from approximately Day 29 to the last visit (Day 78)."}, "PCSK9 [4]": {"target": "T1, PCSK9", "experiment": "Example 6 clinical study, IV doses every 4 weeks on stable statin: lipids", "assay_type": "in vivo", "conditions": "for LDL-C lowering, % below baseline: by Day 29 (FIG. 15)", "experimental": "This study was a randomized, multi center, double blind, placebo control, parallel designed trial with a 3 week screening period, 12 week treatment period and 8 week follow up period.\nSubjects enrolled in the study met all of the following criteria: men and women subjects greater than equal to age of 18; body mass index of 18.5 to 40 kg/m^2; total body weight greater than 50 kg (110 lbs) and less than 150 kg (330 lbs); on a stable daily dose of a statin, defined as atorvastatin 40 or 80 mg, rosuvastatin 20 or 40 mg or simvastatin 40 or 80 mg for a minimum of 45 days prior to Day 1; lipids meet the following criteria at two qualifying visits (screening and Day −7): fasting LDL-C greater than or equal to 100 mg/dL, ;\nThe pre-specified primary efficacy endpoint was the percentage change from baseline of LDL-C at Day 85 analyzed using an ANCOVA model. The final ANCOVA model contained terms for baseline LDL-C and treatment. To preserve the overall type I error rate at a level of 0.05 for the primary endpoint analysis, a Haybittle-Peto, boundary with 0.001 alpha spent was employed.\nThe LDL-C data were subsequently analyzed using mixed model repeated measures to estimate both the treatment by time and empirical dose-response profiles."}, "[5]": {"experimental": "Subjects were seen periodically in the clinic for safety assessments and collection of blood for safety labs, lipid profiles, PK, PD, and immunogenicity samples. Telephone contacts were made prior to each visit to remind them of the 10-hour fasting requirements, during screening and on Day 3 to assess adverse events and document the contact in the subject's source document. […] Infusions were administered as a single infusion over approximately 60 minutes."}, "[6]": {"experiment": "Example 6 clinical study: safety and immunogenicity", "assay_type": "in vivo, human", "conditions": "IV every 4 weeks, stable daily statin", "description": "Subjects were seen periodically in the clinic for safety assessments and collection of blood for safety labs, lipid profiles, PK, PD, and immunogenicity samples. Telephone contacts were made prior to each visit to remind them of the 10-hour fasting requirements, during screening and on Day 3 to assess adverse events and document the contact in the subject's source document. […] Infusion rates were carefully controlled by an infusion device per protocol. Infusions were administered as a single infusion over approximately 60 minutes."}, "[7]": {"conditions": "single IV 0.5 or 4 mg/kg + atorvastatin 40 mg daily"}, "[8]": {"conditions": "IV every 4 weeks, stable daily statin"}},
  "note": "Read-outs that look alike come from different tables or passages of the source.",
  "data": [
    {"molecule": "L1L3: humanized (<5% murine residues) monoclonal PCSK9 antagonist antibody that binds to secreted PCSK9; VH SEQ ID NO: 11, VL SEQ ID NO: 12 (antibody, V domains shown, heavy chain variable region; light chain variable region) VH: QVQLVQSGAEVKKPGASVKVSCKASGYTFTSYYMHWVRQAPGQGLEWMGEISPFGGRTNYNEKFKSRVTMTRDTSTSTVYMELSSLRSEDTAVYYCARERPLYASDLWGQGTTVTVSS VL: DIQMTQSPSSLSASVGDRVTITCRASQGISSALAWYQQKPGKAPKLLIYSASYRYTGVPSRFSGSGSGTDFTFTISSLQPEDIATYYCQQRYSLWRTFGQGTKLEIK", "values": [
      {"measurement": "Discontinuation due to treatment emergent adverse events (TEAEs)", "setting": "[1]", "value": "no subjects discontinued"},
      {"measurement": "Intensity of TEAEs", "setting": "[1]", "value": "majority of TEAEs were mild in intensity; none were severe"},
      {"measurement": "Serious adverse events", "setting": "[1]", "value": "no serious adverse events occurred"},
      {"measurement": "Discontinued subjects", "setting": "[2]; [7]", "value": "no discontinued subjects"},
      {"measurement": "Intensity of TEAEs", "setting": "[2]; [7]", "value": "none were severe in intensity"},
      {"measurement": "Serious adverse events (SAE)", "setting": "[2]; [7]", "value": "one serious adverse event (SAE), i.e. worsening of migraine headache, which was not drug-related"},
      {"measurement": "Alanine aminotransferase (ALT) and/or aspartate aminotransferase (AST) elevation (TEAEs)", "setting": "[2]; transient, without clinical signs/symptoms, all resolved within one week", "value": "greater than 3 ×ULN"},
      {"measurement": "Fasting LDL-C", "setting": "PCSK9 [3]", "value": "sustained, substantial and durable dose-dependent fasting LDL-C lowering"},
      {"measurement": "LDL-C lowering", "setting": "PCSK9 [4]; 3 mg/kg and 6 mg/kg dosing regimens, persisted for 28 days (FIG. 16)", "value": "greater than 30%"},
      {"measurement": "LDL-C lowering, % below baseline", "setting": "PCSK9 [4]; 3 mg/kg dosing regimen, stable daily statin", "value": "about 50%"},
      {"measurement": "LDL-C lowering, % below baseline", "setting": "PCSK9 [4]; 6 mg/kg dosing regimen, stable daily statin", "value": "about 65%"},
      {"measurement": "Effect on triglycerides", "setting": "PCSK9 [4]; [8]", "value": "No effect"},
      {"measurement": "Elevation of HDL", "setting": "PCSK9 [4]; [8]", "value": "up to 9%"},
      {"measurement": "Difference in LS means (Test-Reference) of percentage changes from baseline for LDL-C", "setting": "PCSK9 [4]; L1L3 0.25 mg/kg vs. Placebo on Day 85, MMRM", "value": 2.67},
      {"measurement": "Difference in LS means (Test-Reference) of percentage changes from baseline for LDL-C", "setting": "PCSK9 [4]; L1L3 1 mg/kg vs. Placebo on Day 85, MMRM", "value": 0.83},
      {"measurement": "Difference in LS means (Test-Reference) of percentage changes from baseline for LDL-C", "setting": "PCSK9 [4]; L1L3 3 mg/kg vs. Placebo on Day 85, MMRM", "value": "−38.92"},
      {"measurement": "Difference in LS means (Test-Reference) of percentage changes from baseline for LDL-C", "setting": "PCSK9 [4]; L1L3 6 mg/kg vs. Placebo on Day 85, MMRM", "value": "−50.14"},
      {"measurement": "Cmax", "setting": "[5]; 0.25 mg/kg, after 1st dose", "value": "10900 ± 13000", "unit": "ng/mL"},
      {"measurement": "Ctrough", "setting": "[5]; 0.25 mg/kg, after 1st dose", "value": "109 ± 406", "unit": "ng/mL"},
      {"measurement": "Ctrough", "setting": "[5]; 3 mg/kg, after 3rd dose", "value": "3040 ± 4420", "unit": "ng/mL"},
      {"measurement": "Ctrough", "setting": "[5]; 6 mg/kg, after 3rd dose", "value": "15600 ± 15300", "unit": "ng/mL"},
      {"measurement": "Anti-drug antibodies (ADA)", "setting": "[6]", "value": "No subject had positive ADA"},
      {"measurement": "Safety and tolerability", "setting": "[6]", "value": "generally safe and well-tolerated"},
      {"measurement": "Changes in LFTs, CK, ECGs, and BP", "setting": "[6]; in most cases considered not related to treatment", "value": "transient, mild in nature"}
    ]}
  ]
}
